One may read the IC50 as the concentration that gives 50% inhibition. Read a low IC50 as greater potency.

Non-standard residues stand in square brackets, D forms with d. Primed or numbered codes have the meaning given here. Cha = N[C@@H](CC1CCCCC1)C(=O)O; IRDye800CW′ = not defined here; AEEA = NCCOCCOCC(=O)O

For data set [1], the system named is orthotopic PDX GBM. The class given is in vivo, nude mice. The settings on record: IRDye800CW-AE344 6 nmol i.v. 3 h before surgery; 5-ALA 0.25 mg/g oral 4-5 h before; NIR surgery followed 5-ALA surgery; 2 animals each.
Data set [2] deals with glioma. Conditions: cited from earlier work. From the text:
Gliolan®, the brand name of 5-ALA, was approved for clinical use for GBM resection in Europe in 2007 and by the FDA in 2017. After oral administration, it is metabolized inside the tumor cells into protoporphyrin IX that is fluorescent with an emission peak at 635 nm. […] Further, the frequency of the most common early severe adverse events (hemiparesis, aphasia, convulsions, and epidural hematoma) was 11 of 139 pati ... || GBM as a high-grade glioma is characterized by alterations of the normal brain vasculature resulting in a disrupted leaky BBB [47] manifested on MRI with tumor contrast-enhancement. However, the highly invasive nature of GBM causes single cell invasion into otherwise healthy tissue and proliferation of cells in areas outside of the disrupted BBB region, usually in areas not showing contrast-enhancement on MRI [48]. In contrast, the vasculature and BBB function in low-grade gliomas remains virtually unaltered and intact with normal function. As a consequence, the BBB in both high-grade and ...

The nature of data set [3]: Ex vivo plasma stability, murine plasma. The class given is in vitro ADME. The settings on record: mouse, 37 °C in dark, 2.4 nmol in 1,600 ul plasma, acetonitrile precipitation, HPLC fluorescence detection ex 774/em 798 nm, normalized to 0 h, read-out: intact probe (normalized AUC on HPLC). The method, then:
(§1) For plasma stability 1,600 ul human and murine plasma were separately incubated with 2.4 nmol IRDye800CW-AE344 in 10 ul PBS at 37 °C in dark. 200 ul samples were collected at 0, 0.5, 1, 2, 3, 6, 12 and 24 h. Plasma proteins were precipitated by addition of 200 ul acetonitrile and the samples were centrifuged at 10,000 G for 10 min. The supernatant was collected for analysis. The supernatant from time zero from both the human and mouse serum was analyzed to establish the retention time of the intact IRDye800CW-AE344 on HPLC-MS on a RSLC Dionex Ultimate 3000 (Thermo) instrument coupled to a Bruker QTOF Impact HD II. The column was an Aeris widepore 3.6 µm C4 column (150 × 4.6 mm, Phenomenex) and the solvent system was solvent A: water containing 0.1% Formic acid; solvent B: acetonitrile containing 0.1% formic acid. Method: 0-1 min 5% solvent B, 1-18min 5%-50% solvent B with a flowrate of 1 mL/min. […] All samples were then run using the settings above and the AUC at the 14 min peak was used to calculate the degradation with 0 h for both murine and human plasma as the reference.

Data set [4] is described as follows: Ex vivo plasma stability, human plasma. Conditions: 37 °C in dark, 2.4 nmol in 1,600 ul plasma, acetonitrile precipitation, HPLC fluorescence detection ex 774/em 798 nm, normalized to 0 h, read-out: intact probe (normalized AUC on HPLC). The class given is in vitro ADME. How it is done: as §1
Data set [5] can be described thus: Biodistribution by organ fluorescence imaging. The class given is in vivo, nude mice. Conditions: 3 nmol, 1 h post injection. The method, then:
Biodistribution was assessed in animals (n=2) receiving 3 nmol IRDye800CW-AE344 and was euthanized after 1 h for organ dissection and imaging (exposure time: 333 ms). Due to renal excretion, the fluorescence signals in the kidneys were out of scale compared to all the other organs.

For data set [6], the system named is liver and kidneys. Nature of the data set: Acute toxicity, liver and kidney histology. The class given is in vivo, nude mice. The settings on record: 24 h post injection of 12 nmol, 5 animals. How it is done:
Acute toxicity was evaluated on the liver and kidneys from 5 animals 24 h post injection of 12 nmol IRDye800CW-AE344.
Liver and kidney tissue was formalin fixed and paraffin embedded. Sections of 2-4 um thick were cut and a routine staining panel applied including: H&E, modified sirius, PAS and Masson trichome for both and additional PAS with silver for kidneys and PAS with diastase, iron, reticulin artisan and oxidized orcein for the livers. Livers were immunohistochemically stained, immunohistochemical evaluation on 3 µm thick sections was done using the CK7 antibody from Dako/Agilent, GA619 (clone OV-TL12/30) following the manufacturer's instructions. The staining took place on the Omnis from Agilent utilizing the EnVision Flex+ detection kit (GV800). The primary antibody was diluted using Antibody Diluent (Dako DM830) and were incubated for 20 min. The sections were counterstained with hematoxylin.

Data set [7] concerns 3D blood-brain barrier (BBB) spheroids. Nature of the data set: Uptake into 3D blood-brain barrier spheroids. Conditions: 25 µM, overnight incubation 37 °C/5% CO2, confocal, slice 97 µm inside spheroid, three independent experiments; p = 0.0229. The class given is in vitro ADME, human.
Protocol: All cell lines were incubated at 37 °C/5% CO2.
Blood-brain-barrier spheroid assembly and uptake assays: Blood-brain barrier (BBB) spheroids were assembled as previously described [54]. Briefly, 50 µL of 1% agarose (w/v) in Milli-Q water is added to each well of low-binding 96 well plates (Thermo Fisher Scientific) and allowed to cool prior to the addition of cells. Confluent astrocytes, pericytes and hCMEC/D3 were lifted with 0.025% trypsin and resuspended in BBB-working media (Vasculife-Mv with VEGF omitted and 2% normal human serum). 1x10^3 of each cell type is added sequentially to give a total volume of 100 µL per well. BBB-working media was added to each well to a final volume of 200 µL per well. Astrocytes were used between passage 2 and 4, pericytes between passage 4 and 6, and hCMEC/D3 between passages 29 and 30. […]
The following day, spheroids (10 per treatment condition) were pooled by group into low-binding Eppendorf tubes (1.5 mL, Thermo Fisher Scientific) using 0.1% Triton X-100 treated pipette tips and washed 3 times with sterile PBS. […] The extent of uptake into the spheroids was determined by capturing Z-stacks of each spheroid and measuring the integrated density of a region of interest 50µm from the outer boundary of the spheroid using a slice that corresponds to 97µm inside the spheroid [54]. […]
In data set [8] the test system is uPAR-expressing tumors. Conditions: cited from earlier work; for time of maximal TBR: previous probes. How it is done: Compared to our previous probes, ICG-2Glu-AE105 and CH1055-4Glu-AE105, we improved several features. Importantly, the route of excretion changed from liver to kidneys leading to improved pharmacokinetics with faster excretion. Maximal TBR decreased from 15 h and 96 h of ICG-Glu-Glu-AE105 and CH1055-4Glu-AE105, respectively to 3 h with the current new probe.

Assay in data set [9]: not given
This is another data set of the same source.

Assay in data set [10]: not given
This is another data set of the same source.

Assay in data set [11]: not given
This is another data set of the same source.

Data set [12] deals with T1, urokinase-type Plasminogen Activator Receptor (uPAR) (UniProt Q03405 23-305). Nature of the data set: SPR; competition in solution, Biacore 3000: pro-uPA S356A immobilised on a CM5 chip (>5000 RU, mass transport limited); 2 nM uPAR incubated with a 3-fold dilution series of peptide (0.076 nM to 1.5 uM), 300 sec, 20 °C, 50 uL/min; 10 mM HEPES, 150 mM NaCl, 3 mM EDTA, 0.05% P20, pH 7.4. Conditions: both partners purified.

The target of data set [13] is T1, urokinase-type Plasminogen Activator …. Put plainly: cell-based or functional assay.

T1 sequence (Q03405 23-305): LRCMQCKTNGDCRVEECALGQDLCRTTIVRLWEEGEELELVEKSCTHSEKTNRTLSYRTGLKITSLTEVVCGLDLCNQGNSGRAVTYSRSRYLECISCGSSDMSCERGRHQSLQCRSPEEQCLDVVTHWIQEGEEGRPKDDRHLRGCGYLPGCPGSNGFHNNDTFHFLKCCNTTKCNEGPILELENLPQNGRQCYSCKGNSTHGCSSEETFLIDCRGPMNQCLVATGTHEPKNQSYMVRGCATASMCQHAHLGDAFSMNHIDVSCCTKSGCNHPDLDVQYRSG

Regarding `NCC(=O)CCC(=O)O` [5-ALA], the “postoperative residual tumor on histology after guided surgery” value in data set [1] is recorded as “clearly showed residual tumor”. In addition, the “low-grade gliomas showing visible fluorescence” value in data set [2] is reported as “approximately 20%”. For the same molecule, the “frequency of the most common early severe adverse events” value in [2] (hemiparesis, aphasia, convulsions, epidural hematoma, WL group 4 of 131) is 11 of 139. Moreover, the “rate of complete resection of the tumor” value in data set [2] (phase III clinical trial, 5-ALA vs WL surgery (36% with WL)) is 65%.

In the case of `CC(C)C[C@H](NC(=O)[C@H](Cc1ccc(O)cc1)NC(=O)[C@@H](CCCNC(=N)N)NC(=O)[C@@H](CO)NC(=O)[C@H](Cc1ccccc1)NC(=O)[C@H](CC1CCCCC1)NC(=O)[C@H](CC(=O)O)NC(=O)COCCOCCNC(=O)COCCOCCNC(=O)[C@H](CCC(=O)O)NC(=O)[C@H](CCC(=O)O)NC(=O)CCCCC[N+]1=C(/C=C/C2=C(Oc3ccc(S(=O)(=O)O)cc3)C(=C/C=C3/N(CCCCS(=O)(=O)O)c4ccc(S(=O)(=O)O)cc4C3(C)C)/CCC2)C(C)(C)c2cc(S(=O)(=O)[O-])ccc21)C(=O)N[C@@H](Cc1c[nH]c2ccccc12)C(=O)N[C@@H](CO)C(=O)O` [IRDye800CW-AE344], the remaining at 6 h, 1.5 µM in data set [3] (6 h) was 73%. Further, the remaining at 12 h, 1.5 µM in data set [3] (12 h) came out at 67%. In addition, the remaining at 6 h in [4] is 61%. For the same molecule, in data set [5] (n=2, exposure time 333 ms), the MFI in liver is 88 a.u, the MFI in lungs is recorded as 101 a.u, the “MFI in normal brain tissue” value came to 19 a.u and the MFI in skin is listed as 99 a.u. Besides, the MFI in kidneys in [5] (n=2, acquired at 40 ms and extrapolated to 333 ms) is on record as 1,236 a.u. In data set [6], the kidney histology result is “normal with preserved glomeruli and tubules without atrophy, inflammation, or fibrosis”; the liver histology result is “normal with lobular configuration without inflammation, fibrosis, cholestasis or deposits”. For the same molecule, the “fold change in relative fluorescence units (RFU) compared to untreated spheroids” value in [7] stood at 5.3 fold.

Regarding “CH1055-Glu-Glu-Glu-Glu-AE105 [CH1055-4Glu-AE105, previous uPAR probe with NIR-II fluorophore CH1055]”, in data set [8], the “TBR of previous probes” value was 2.7 and the “time of maximal TBR” value was 96 h.

In the case of “ICG-Glu-Glu-AE105 [previous fluorescently labeled uPAR probe with ICG]”, in data set [8], the “TBR of previous probes” value was 3.5 and the “time of maximal TBR” value was 15 h.

For the molecule `CC(C)C[C@H](NC(=O)[C@H](Cc1ccc(O)cc1)NC(=O)[C@@H](CCCNC(=N)N)NC(=O)[C@@H](CO)NC(=O)[C@H](Cc1ccccc1)NC(=O)[C@H](CC1CCCCC1)NC(=O)[C@H](CC(=O)O)NC(=O)COCCOCCNC(=O)COCCOCCNC(=O)[C@H](CCC(=O)O)NC(=O)[C@H](CCC(=O)O)NC(=O)CCCCC[N+]1=C(/C=C/C2=C(Oc3ccc(S(=O)(=O)O)cc3)C(=C/C=C3/N(CCCCS(=O)(=O)[O-])c4ccc(S(=O)(=O)O)cc4C3(C)C)/CCC2)C(C)(C)c2cc(S(=O)(=O)O)ccc21)C(=O)N[C@@H](Cc1c[nH]c2ccccc12)C(=O)N[C@@H](CO)C(=O)O`, the Stokes shift turned out to be 10 nm. Further, in [9], the emission peak λemis,max was 794 nm. In addition, the excitation peak λexcit,max in data set [10] is 784 nm. Moreover, the absorption maximum λabs,max in data set [11] amounted to 777 nm.

B1: AE105 (peptide)
chain: DAFSRYLWS
modifications: 9-mer; residue 2 Cha (cyclohexylalanine), residue 4 D-Ser, residue 5 D-Arg; C-terminal free acid. Sequence not printed: taken from the core of the related antagonist peptide AE147 in 1YWH, with D-Arg
On to B1, for which, in [12], the IC50 worked out at 7.8 nM.

B2: IRDye800CW-AE344 (peptide)
chain: {IRDye800CW′}-EE[AEEA][AEEA]D[Cha]F[dS][dR]YLWS-OH
modifications: also: X3-X4: OEG2 linker between Glu-Glu and AE105
Take B2: in data set [13], the “normalized tumor-to-background ratio (TBR), NIR imaging of cross sectioned brains with orthotopic GBM in mice, 3 nmol IRDye800CW-AE344 (active), 1 h” value is 6.6 and the “normalized tumor-to-background ratio (TBR), NIR imaging of orthotopic GBM in mice, 3 nmol IRDye800CW-AE344 blocked by co-administered AE120 (the dimer version of the AE105), 1 h” value stood at 4.6. The molecule further displayed a 50% inhibitory concentration (IC50) in [12] of 20 nM.

Values taken from paper PMC8210614, “IRDye800CW labeled uPAR-targeting peptide for fluorescence-guided glioblastoma surgery: Preclinical studies in orthotopic xenografts” (Theranostics, 2021).
